Measured values from patent US20080182978A1, “ANTI-NGF ANTIBODIES AND METHODS USING SAME” (RINAT NEUROSCIENCE CORP, priority 2002, published 2008).

Key:
[1] = molecular target: T1, human NGF (Homo sapiens, UniProt P01138); test: cell-based or functional assay
Target sequence in this assay (P01138 122-241 limits assumed): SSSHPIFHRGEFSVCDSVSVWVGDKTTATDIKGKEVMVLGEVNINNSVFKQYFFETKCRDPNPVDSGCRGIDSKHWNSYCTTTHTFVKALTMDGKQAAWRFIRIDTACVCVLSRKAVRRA

[2] = molecular target: rat NGF (rat) (UniProt P25427); test: cell-based or functional assay
[3] = molecular target: T1, human NGF; test: BIAcore screening assay of Fab library clones (koff); type: binding; settings: Table 6: single CDR H3 or L3 mutation in 8L2-6D5 template
Method: Small scale expression in 96 wells plates was optimized for screening Fab libraries. Starting from E. coli transformed with a Fab library, colonies were picked to inoculate both a master plate (agar LB+Ampicillin (50 μg/ml)+2% Glucose) and a working plate (2 ml/well, 96 well/plate containing 1.5 mL of LB+Ampicillin (50 μg/ml)+2% Glucose). Both plates were grown at 30° C. for 8-12 hours. The master plate was stored at 4° C. and the cells from the working plate were pelleted at 5000 rpm and resuspended with 1 mL of LB+Ampicillin (50 μg/ml)+1 mM IPTG to induce expression of Fabs. Cells were harvested by centrifugation after 5 h expression time at 30° C., then resuspended in 500 μL of buffer HBS-EP ([…] buffer pH 7.4, 150 mM NaCl, 0.005% P20, 3 mM EDTA). Lysis of HBS-EP resuspended cells was attained by one cycle of freezing (−80° C.) then thawing at 37° C. Cell lysates were centrifuged at 5000 rpm for 30 min to separate cell debris from supernatants containing Fabs. The supernatants were then injected into the BIAcore plasmon resonance apparatus to obtain affinity information for each Fab. Clones expressing Fabs were rescued from the master plate to sequence the DNA and for large scale Fab production and detailed characterization as described below.
Affinities of anti-NGF Fabs and monoclonal antibodies were determined using the BIAcore300™ surface plasmon resonance (SPR) system (BIAcore, INC, Piscaway N.J.). CM5 chips were activated with N-ethyl-N′-(3-dimethylaminopropyl)-carbodimide hydrochloride (EDC) and N-hydroxysuccinimide (NHS) according to the supplier's instructions. Human NGF was diluted into 10 mM sodium acetate pH 4.0 and injected over the activated chip at a concentration of 0.005 mg/mL. Using variable flow time across the individual chip channels, two ranges of antigen density were achieved: 100-200 response units (RU) for detailed kinetic studies and 500-600 RU for screening assays. The chip was blocked with ethanolamine. […] HBS-EP buffer (0.01M HEPES, pH 7.4, 0.15 NaCl, 3 mM EDTA, 0.005% Surfactant […]) was used as running buffer for all the BIAcore assays.
A screening BIAcore assay was optimized to determine the affinity of Fab clones from libraries. Supernatants of small culture lysates were injected at 50 μl/min for 2 min. Dissociation times of 10 to 15 minutes were used for determination of a single exponential dissociation rate (koff) using BIAevaluation software. […] Clones showing improved (slower) koff values were expressed at large scale and full kinetic parameters, kon and koff, were determined on purified protein. The assay was capable of detecting differences in affinity that were approximately 2-fold or larger.
For affinity screening experiments, each library was further paired with the corresponding CDR-grafted light or heavy chain (for example, the H1/H2 library was paired with CDR-grafted light chain), the antibody was expressed, and affinity to human NGF of the individual clones was screened using the BIACORE surface plasmon resonance (SPR) system (BIAcore, Inc. Piscataway, N.J.) according to the manufacturer's instructions and as described above. koff, kon and KD were determined. Antibody clones were ranked based on koff rates, since generally most variation in affinity is seen in koff rates, and further because koff rates are independent of antibody concentration.
20-80 clones from each small library were screened using BIAcore analysis as described herein. Samples were simultaneously analyzed by BIAcore for binding affinity to NGF in one channel of the BIAcore chip and for presence of Fab by binding to a penta-histag antibody in another channel of the sensor chip, to detect the his tag at the C terminus of the heavy chain. Clones that expressed protein were classified as having the same affinity, worse affinity, better affinity or no binding, using koff to classify: The results of this analysis are shown in Table 5.
Target sequence in this assay (P01138 122-241): as the sequence (P01138 122-241 limits assumed) above

Chain of rat NGF (rat) (P25427 122-241 limits assumed): as the sequence (P01138 122-241 limits assumed) above, with S3T, I6V, R9M, M37T, D60A, D65E, M92T, G94D, V117A, A120G counted along it

| Molecule | koff [3] [s⁻¹] | further results |
| --- | --- | --- |
| mouse antibody 911 (Fab) |  | IC50, human NGF-dependent survival of mouse E13.5 trigeminal neurons, 1.5 pM NGF [1]: 63.5 pM; IC50, human NGF-dependent survival of mouse E13.5 trigeminal neurons, 15 pM NGF [1]: 322 pM; IC50, rat NGF-dependent survival of mouse E13.5 trigeminal neurons, 1.5 pM NGF [2]: 34.6 pM; IC50, rat NGF-dependent survival of mouse E13.5 trigeminal neurons, 15 pM NGF [2]: 161 pM |
| Y106R: 8L2-6D5 template with CDR H3 mutation Y106R (antibody, V domains shown) VH: QVQLQESGPGLVKPSETLSLTCTVSGFSLIGYDINWIRQPPGKGLEWIGMIWGDGTTDYNSALKSRVTISKDTSKNQFSLKLSSVTAADTAVYYCARGGYYYGTSRYFDYWGQGTLVTVS VL: DIQMTQSPSSLSASVGDRVTITCRASQDISNHLNWYQQKPGKAPKLLIYYISRFHSGVPSRFSGSGSGTDFTFTISSLQPEDIATYYCQQSKTLPYTFGQGTKLEIKRT | 0.0016 |  |
| Y110T: 8L2-6D5 template with CDR H3 mutation Y110T (antibody, V domains shown) VH: QVQLQESGPGLVKPSETLSLTCTVSGFSLIGYDINWIRQPPGKGLEWIGMIWGDGTTDYNSALKSRVTISKDTSKNQFSLKLSSVTAADTAVYYCARGGYYYGTSYYFDTWGQGTLVTVS VL: DIQMTQSPSSLSASVGDRVTITCRASQDISNHLNWYQQKPGKAPKLLIYYISRFHSGVPSRFSGSGSGTDFTFTISSLQPEDIATYYCQQSKTLPYTFGQGTKLEIKRT | 0.0017 |  |
| Y110S: 8L2-6D5 template with CDR H3 mutation Y110S (antibody, V domains shown) VH: QVQLQESGPGLVKPSETLSLTCTVSGFSLIGYDINWIRQPPGKGLEWIGMIWGDGTTDYNSALKSRVTISKDTSKNQFSLKLSSVTAADTAVYYCARGGYYYGTSYYFDSWGQGTLVTVS VL: DIQMTQSPSSLSASVGDRVTITCRASQDISNHLNWYQQKPGKAPKLLIYYISRFHSGVPSRFSGSGSGTDFTFTISSLQPEDIATYYCQQSKTLPYTFGQGTKLEIKRT | 0.0015 |  |
| D109G: 8L2-6D5 template with CDR H3 mutation D109G (antibody, V domains shown) VH: QVQLQESGPGLVKPSETLSLTCTVSGFSLIGYDINWIRQPPGKGLEWIGMIWGDGTTDYNSALKSRVTISKDTSKNQFSLKLSSVTAADTAVYYCARGGYYYGTSYYFGYWGQGTLVTVS VL: DIQMTQSPSSLSASVGDRVTITCRASQDISNHLNWYQQKPGKAPKLLIYYISRFHSGVPSRFSGSGSGTDFTFTISSLQPEDIATYYCQQSKTLPYTFGQGTKLEIKRT | 0.001 |  |
| Y107F: 8L2-6D5 template with CDR H3 mutation Y107F (antibody, V domains shown) VH: QVQLQESGPGLVKPSETLSLTCTVSGFSLIGYDINWIRQPPGKGLEWIGMIWGDGTTDYNSALKSRVTISKDTSKNQFSLKLSSVTAADTAVYYCARGGYYYGTSYFFDYWGQGTLVTVS VL: DIQMTQSPSSLSASVGDRVTITCRASQDISNHLNWYQQKPGKAPKLLIYYISRFHSGVPSRFSGSGSGTDFTFTISSLQPEDIATYYCQQSKTLPYTFGQGTKLEIKRT | 0.0014 |  |
| Y106M: 8L2-6D5 template with CDR H3 mutation Y106M (antibody, V domains shown) VH: QVQLQESGPGLVKPSETLSLTCTVSGFSLIGYDINWIRQPPGKGLEWIGMIWGDGTTDYNSALKSRVTISKDTSKNQFSLKLSSVTAADTAVYYCARGGYYYGTSMYFDYWGQGTLVTVS VL: DIQMTQSPSSLSASVGDRVTITCRASQDISNHLNWYQQKPGKAPKLLIYYISRFHSGVPSRFSGSGSGTDFTFTISSLQPEDIATYYCQQSKTLPYTFGQGTKLEIKRT | 0.0027 |  |
| F108W: 8L2-6D5 template with CDR H3 mutation F108W (antibody, V domains shown) VH: QVQLQESGPGLVKPSETLSLTCTVSGFSLIGYDINWIRQPPGKGLEWIGMIWGDGTTDYNSALKSRVTISKDTSKNQFSLKLSSVTAADTAVYYCARGGYYYGTSYYWDYWGQGTLVTVS VL: DIQMTQSPSSLSASVGDRVTITCRASQDISNHLNWYQQKPGKAPKLLIYYISRFHSGVPSRFSGSGSGTDFTFTISSLQPEDIATYYCQQSKTLPYTFGQGTKLEIKRT | 0.00122 |  |
| D109N: 8L2-6D5 template with CDR H3 mutation D109N (antibody, V domains shown) VH: QVQLQESGPGLVKPSETLSLTCTVSGFSLIGYDINWIRQPPGKGLEWIGMIWGDGTTDYNSALKSRVTISKDTSKNQFSLKLSSVTAADTAVYYCARGGYYYGTSYYFNYWGQGTLVTVS VL: DIQMTQSPSSLSASVGDRVTITCRASQDISNHLNWYQQKPGKAPKLLIYYISRFHSGVPSRFSGSGSGTDFTFTISSLQPEDIATYYCQQSKTLPYTFGQGTKLEIKRT | 0.0015 |  |
| Y106T: 8L2-6D5 template with CDR H3 mutation Y106T (antibody, V domains shown) VH: QVQLQESGPGLVKPSETLSLTCTVSGFSLIGYDINWIRQPPGKGLEWIGMIWGDGTTDYNSALKSRVTISKDTSKNQFSLKLSSVTAADTAVYYCARGGYYYGTSTYFDYWGQGTLVTVS VL: DIQMTQSPSSLSASVGDRVTITCRASQDISNHLNWYQQKPGKAPKLLIYYISRFHSGVPSRFSGSGSGTDFTFTISSLQPEDIATYYCQQSKTLPYTFGQGTKLEIKRT | 0.002 |  |
| Y110K: 8L2-6D5 template with CDR H3 mutation Y110K (antibody, V domains shown) VH: QVQLQESGPGLVKPSETLSLTCTVSGFSLIGYDINWIRQPPGKGLEWIGMIWGDGTTDYNSALKSRVTISKDTSKNQFSLKLSSVTAADTAVYYCARGGYYYGTSYYFDKWGQGTLVTVS VL: DIQMTQSPSSLSASVGDRVTITCRASQDISNHLNWYQQKPGKAPKLLIYYISRFHSGVPSRFSGSGSGTDFTFTISSLQPEDIATYYCQQSKTLPYTFGQGTKLEIKRT | 0.0014 |  |
| Y96R: 8L2-6D5 template with CDR L3 mutation Y96R (antibody, V domains shown) VH: QVQLQESGPGLVKPSETLSLTCTVSGFSLIGYDINWIRQPPGKGLEWIGMIWGDGTTDYNSALKSRVTISKDTSKNQFSLKLSSVTAADTAVYYCARGGYYYGTSYYFDYWGQGTLVTVS VL: DIQMTQSPSSLSASVGDRVTITCRASQDISNHLNWYQQKPGKAPKLLIYYISRFHSGVPSRFSGSGSGTDFTFTISSLQPEDIATYYCQQSKTLPRTFGQGTKLEIKRT | 0.0017 |  |
| Y110R: 8L2-6D5 template with CDR H3 mutation Y110R (antibody, V domains shown) VH: QVQLQESGPGLVKPSETLSLTCTVSGFSLIGYDINWIRQPPGKGLEWIGMIWGDGTTDYNSALKSRVTISKDTSKNQFSLKLSSVTAADTAVYYCARGGYYYGTSYYFDRWGQGTLVTVS VL: DIQMTQSPSSLSASVGDRVTITCRASQDISNHLNWYQQKPGKAPKLLIYYISRFHSGVPSRFSGSGSGTDFTFTISSLQPEDIATYYCQQSKTLPYTFGQGTKLEIKRT | 0.0016 |  |
